Reference: patent US20210009668A1 (ROCHE DIAGNOSTICS OPERATIONS, published 2021)

target: T1, recombinant human cardiac troponin T (human, UniProt P45379 2-298); test: SPR (Biacore T200, 37 C), Fab captured, cTnT analyte
T1 construct: In the ECL assay the cTnT came from the Troponin T hs CalSet calibrator; also called cTnT; TnT
Procedure: Detailed kinetic investigations were performed at 37° C. on a GE Healthcare T200 instrument. A Biacore CM-5 series S sensor was mounted into the instrument and was preconditioned according to the manufacturer's instructions. The system buffer was HBS-ET (10 mM HEPES (pH 7.4), 150 mM NaCl, 1 mM EDTA, 0.05% (w/v) Tween® 20). The sample buffer was the system buffer supplemented with 1 mg/ml CMD (Carboxymethyldextran, Fluka). In one embodiment an anti-human antibody capture system was established on the CMS biosensor. GAHF(ab′)2, (goat anti human F(ab′)2) (Code Nr.: 109-005-097, lot #13.12.2005, Jackson Immuno Research) was immobilized according to the manufacturer's instructions using NHS/EDC chemistry. 30 μg/ml GAHF(ab′)2 in 10 mM sodium acetate buffer (pH 5.0) were preconcentrated to the flow cells 1, 2, 3 and 4 and were immobilized with 10.000 RU GAHF(ab′)2. The sensor was subsequently saturated with 1 M ethanolamine pH 8.5.
Chimeric anti-TnT antibody fragments were periplasmatically expressed in E. coli cells as described and were lyzed by methods known (for technical details see: Andersen, D. C. & Reilly, D. E. (2004); Production technologies for monoclonal antibodies and their fragments. Curr Opin Biotechnol 15, 456-62). The lysates were diluted 1:20 in sample buffer. Fab fragments were captured via their humanized framework regions from the expression lysates on the biosensor at a flow rate of 10 μl/min for 1 min followed by a 2 min washing step with 10-fold concentrated HBS-EP buffer at 30 μl/min. The Fab fragment capture level (CL) in response units (RU) was monitored. Recombinant human TnT (Roche, 37 kDa) was diluted in sample buffer at 90 nM and a concentration series was produced with […], 30 nM, 11 nM, 3.3 nM, 1.1 nM, 0 nM, 3.3 nM TnT concentration. The analyte concentration series were 80 μl/min for 3 min association phase and the dissociation phase was monitored for 3 min.
The kinetic parameters ka [1/Ms], kd [1/s], t1/2 diss [min], KD [M] and the binding stoichiometry (Molar Ratio) (for details see: Schraeml, M. & Biehl, M. (2012); Kinetic screening in the antibody development process. Methods Mol Biol 901, 171-81.) of the cTnT analyte were determined for each Fab fragment mutant with the Biaevaluation Software (GE healthcare) according to the manufacturer's instructions.

Row | Binder | Kd [nM] | MR (Molar Ratio) | koff [s⁻¹] | kon [M⁻¹ s⁻¹] | t/2-diss [min]
1 | parental anti-cTnT Fab fragment (wildtype TnT M-7 Fab, from antibody 12.1A11.11-7) (Fab, V domains shown, also called wildtype Fab; TnT M-7 (wildtype) Fab) VH: EVQLQQSGPELVKPGASVKMSCKASGYTFTDYYMKWVKQSHGKSLEWIGDINPNNGETFYNQKFKDKATLTVDKSSSTAYMQLNSLTSEDSAVYYCATRVFDYWGQGTTLTVSS VL: DIVLTQSPASLAVSLGQRATISCKASQSVDYDGTSYMNWFQQKAGQPPKRLIYAASNLESGIPARFSGRGSGTDFALNIHPVEEEDAATYYCQQSNEDPYTFGGGTKLEIK | 0.58 | 0.6 | 0.0014 | 2.5e+06 | 8
2 | anti-cTnT Fab mutant 4 (Y34F, F60W, Y104F) (Fab, V domains shown, also called combination 4) VH: EVQLQQSGPELVKPGASVKMSCKASGYTFTDYFMKWVKQSHGKSLEWIGDINPNNGETWYNQKFKDKATLTVDKSSSTAYMQLNSLTSEDSAVYYCATRVFDFWGQGTTLTVSS VL: DIVLTQSPASLAVSLGQRATISCKASQSVDYDGTSYMNWFQQKAGQPPKRLIYAASNLESGIPARFSGRGSGTDFALNIHPVEEEDAATYYCQQSNEDPYTFGGGTKLEIK | 0.27 | 0.7 | 0.00072 | 2.7e+06 | 16
3 | anti-cTnT Fab mutant 9 (Y34I) (Fab, V domains shown, also called combination 9) VH: EVQLQQSGPELVKPGASVKMSCKASGYTFTDYIMKWVKQSHGKSLEWIGDINPNNGETFYNQKFKDKATLTVDKSSSTAYMQLNSLTSEDSAVYYCATRVFDYWGQGTTLTVSS VL: DIVLTQSPASLAVSLGQRATISCKASQSVDYDGTSYMNWFQQKAGQPPKRLIYAASNLESGIPARFSGRGSGTDFALNIHPVEEEDAATYYCQQSNEDPYTFGGGTKLEIK | 1.2 | 0.7 | 0.0023 | 2e+06 | 5
4 | anti-cTnT Fab mutant 13 (Y34I, F60W, V101Y + Y104F) (Fab, V domains shown, also called combination 13) VH: EVQLQQSGPELVKPGASVKMSCKASGYTFTDYIMKWVKQSHGKSLEWIGDINPNNGETWYNQKFKDKATLTVDKSSSTAYMQLNSLTSEDSAVYYCATRYFDFWGQGTTLTVSS VL: DIVLTQSPASLAVSLGQRATISCKASQSVDYDGTSYMNWFQQKAGQPPKRLIYAASNLESGIPARFSGRGSGTDFALNIHPVEEEDAATYYCQQSNEDPYTFGGGTKLEIK | 0.62 | 0.7 | 0.0019 | 3e+06 | 6
5 | anti-cTnT Fab mutant 1 (Y34F) (Fab, V domains shown, also called combination 1) VH: EVQLQQSGPELVKPGASVKMSCKASGYTFTDYFMKWVKQSHGKSLEWIGDINPNNGETFYNQKFKDKATLTVDKSSSTAYMQLNSLTSEDSAVYYCATRVFDYWGQGTTLTVSS VL: DIVLTQSPASLAVSLGQRATISCKASQSVDYDGTSYMNWFQQKAGQPPKRLIYAASNLESGIPARFSGRGSGTDFALNIHPVEEEDAATYYCQQSNEDPYTFGGGTKLEIK | 0.62 | 0.7 | 0.0014 | 2.3e+06 | 8
6 | anti-cTnT Fab mutant 8 (Y34F, V101Y + Y104F) (Fab, V domains shown, also called combination 8) VH: EVQLQQSGPELVKPGASVKMSCKASGYTFTDYFMKWVKQSHGKSLEWIGDINPNNGETFYNQKFKDKATLTVDKSSSTAYMQLNSLTSEDSAVYYCATRYFDFWGQGTTLTVSS VL: DIVLTQSPASLAVSLGQRATISCKASQSVDYDGTSYMNWFQQKAGQPPKRLIYAASNLESGIPARFSGRGSGTDFALNIHPVEEEDAATYYCQQSNEDPYTFGGGTKLEIK | 0.2 | 0.7 | 0.00052 | 2.7e+06 | 22
7 | anti-cTnT Fab mutant 12 (Y34I, F60W, Y104F) (Fab, V domains shown, also called combination 12; combination "12") VH: EVQLQQSGPELVKPGASVKMSCKASGYTFTDYIMKWVKQSHGKSLEWIGDINPNNGETWYNQKFKDKATLTVDKSSSTAYMQLNSLTSEDSAVYYCATRVFDFWGQGTTLTVSS VL: DIVLTQSPASLAVSLGQRATISCKASQSVDYDGTSYMNWFQQKAGQPPKRLIYAASNLESGIPARFSGRGSGTDFALNIHPVEEEDAATYYCQQSNEDPYTFGGGTKLEIK | 0.32 | 0.5 | 0.00037 | 1.18e+06 | 31
8 | anti-cTnT Fab mutant 16 (Y34I, V101Y + Y104F) (Fab, V domains shown, also called combination 16) VH: EVQLQQSGPELVKPGASVKMSCKASGYTFTDYIMKWVKQSHGKSLEWIGDINPNNGETFYNQKFKDKATLTVDKSSSTAYMQLNSLTSEDSAVYYCATRYFDFWGQGTTLTVSS VL: DIVLTQSPASLAVSLGQRATISCKASQSVDYDGTSYMNWFQQKAGQPPKRLIYAASNLESGIPARFSGRGSGTDFALNIHPVEEEDAATYYCQQSNEDPYTFGGGTKLEIK | 3.4 | 0.6 | 0.0059 | 1.7e+06 | 2
9 | anti-cTnT Fab mutant 17 (F60W) (Fab, V domains shown, also called combination 17) VH: EVQLQQSGPELVKPGASVKMSCKASGYTFTDYYMKWVKQSHGKSLEWIGDINPNNGETWYNQKFKDKATLTVDKSSSTAYMQLNSLTSEDSAVYYCATRVFDYWGQGTTLTVSS VL: DIVLTQSPASLAVSLGQRATISCKASQSVDYDGTSYMNWFQQKAGQPPKRLIYAASNLESGIPARFSGRGSGTDFALNIHPVEEEDAATYYCQQSNEDPYTFGGGTKLEIK | 0.54 | 0.7 | 0.0016 | 2.9e+06 | 7
10 | anti-cTnT Fab mutant 15 (Y34I, Y104F) (Fab, V domains shown, also called combination 15) VH: EVQLQQSGPELVKPGASVKMSCKASGYTFTDYIMKWVKQSHGKSLEWIGDINPNNGETFYNQKFKDKATLTVDKSSSTAYMQLNSLTSEDSAVYYCATRVFDFWGQGTTLTVSS VL: DIVLTQSPASLAVSLGQRATISCKASQSVDYDGTSYMNWFQQKAGQPPKRLIYAASNLESGIPARFSGRGSGTDFALNIHPVEEEDAATYYCQQSNEDPYTFGGGTKLEIK | 1.1 | 0.7 | 0.0023 | 2.2e+06 | 5
11 | anti-cTnT Fab mutant 5 (Y34F, F60W, V101Y + Y104F) (Fab, V domains shown, also called combination 5) VH: EVQLQQSGPELVKPGASVKMSCKASGYTFTDYFMKWVKQSHGKSLEWIGDINPNNGETWYNQKFKDKATLTVDKSSSTAYMQLNSLTSEDSAVYYCATRYFDFWGQGTTLTVSS VL: DIVLTQSPASLAVSLGQRATISCKASQSVDYDGTSYMNWFQQKAGQPPKRLIYAASNLESGIPARFSGRGSGTDFALNIHPVEEEDAATYYCQQSNEDPYTFGGGTKLEIK | 0.23 | 0.7 | 0.00057 | 2.4e+06 | 20
12 | anti-cTnT Fab mutant 2 (Y34F, F60W) (Fab, V domains shown, also called combination 2) VH: EVQLQQSGPELVKPGASVKMSCKASGYTFTDYFMKWVKQSHGKSLEWIGDINPNNGETWYNQKFKDKATLTVDKSSSTAYMQLNSLTSEDSAVYYCATRVFDYWGQGTTLTVSS VL: DIVLTQSPASLAVSLGQRATISCKASQSVDYDGTSYMNWFQQKAGQPPKRLIYAASNLESGIPARFSGRGSGTDFALNIHPVEEEDAATYYCQQSNEDPYTFGGGTKLEIK | 0.46 | 0.7 | 0.001 | 2.2e+06 | 11
13 | anti-cTnT Fab mutant 7 (Y34F, Y104F) (Fab, V domains shown, also called combination 7) VH: EVQLQQSGPELVKPGASVKMSCKASGYTFTDYFMKWVKQSHGKSLEWIGDINPNNGETFYNQKFKDKATLTVDKSSSTAYMQLNSLTSEDSAVYYCATRVFDFWGQGTTLTVSS VL: DIVLTQSPASLAVSLGQRATISCKASQSVDYDGTSYMNWFQQKAGQPPKRLIYAASNLESGIPARFSGRGSGTDFALNIHPVEEEDAATYYCQQSNEDPYTFGGGTKLEIK | 0.45 | 0.7 | 0.0011 | 2.4e+06 | 11
14 | anti-cTnT Fab mutant 11 (Y34I, F60W, V101Y) (Fab, V domains shown, also called combination 11) VH: EVQLQQSGPELVKPGASVKMSCKASGYTFTDYIMKWVKQSHGKSLEWIGDINPNNGETWYNQKFKDKATLTVDKSSSTAYMQLNSLTSEDSAVYYCATRYFDYWGQGTTLTVSS VL: DIVLTQSPASLAVSLGQRATISCKASQSVDYDGTSYMNWFQQKAGQPPKRLIYAASNLESGIPARFSGRGSGTDFALNIHPVEEEDAATYYCQQSNEDPYTFGGGTKLEIK | 1 | 0.7 | 0.0022 | 2.2e+06 | 5
15 | anti-cTnT Fab mutant 3 (Y34F, F60W, V101Y) (Fab, V domains shown, also called combination 3) VH: EVQLQQSGPELVKPGASVKMSCKASGYTFTDYFMKWVKQSHGKSLEWIGDINPNNGETWYNQKFKDKATLTVDKSSSTAYMQLNSLTSEDSAVYYCATRYFDYWGQGTTLTVSS VL: DIVLTQSPASLAVSLGQRATISCKASQSVDYDGTSYMNWFQQKAGQPPKRLIYAASNLESGIPARFSGRGSGTDFALNIHPVEEEDAATYYCQQSNEDPYTFGGGTKLEIK | 0.37 | 0.7 | 0.00079 | 2.1e+06 | 15
